{"source": "paper PMC6203986", "about": "“Crystal structure of carbonic anhydrase CaNce103p from the pathogenic yeast Candida albicans” (BMC Structural Biology, 2018)", "biological_target": "the molecule itself", "test": "SEC; HR200 Increase (Superdex 200 Increase 10/300 GL) column in 10 mM Tris-Cl, pH 8, 20 mM β-mercaptoethanol, 0.5 ml/min, calibrated with molecular weight markers; for Δ29 100 μl of 1.0 mg/ml injected; self-association", "note": "“And” between values parts separate entries of the source, which are not always exact repeats. Identical values can stand only once.", "data": [{"protein": "CaNce103p, carbonic anhydrase from Candida albicans, wild-type full length (enzyme, Carbonic anhydrase Nce103p of Candida albicans, full length (C-terminus at residue 281); gene amplified from genomic DNA of strain HE109; stop codon kept so that no His-tag is attached; purified on Ni through four natural C-terminal histidines; also called wt; source: E. coli BL23(DE3), purified (HiTrap Ni column, MonoQ)) MGRENILKYQLEHDHESDLVTEKDQSLLLDNNNNLNGMNNTIKTHPVRVSSGNHNNFPFTLSSESTLQDFLNNNKFFVDSIKHNHGNQIFDLNGQGQSPHTLWIGCSDSRAGDQCLATLPGEIFVHRNIANIVNANDISSQGVIQFAIDVLKVKKIIVCGHTDCGGIWASLSKKKIGGVLDLWLNPVRHIRAANLKLLEEYNQDPKLKAKKLAELNVISSVTALKRHPSASVALKKNEIEVWGMLYDVATGYLSQVEIPQDEFEDLFHVHDEHDEEEYNPH", "values": [{"measurement": "stoichiometry N", "result": "2 and 4"}]}, {"protein": "Δ29_CaNce103p, CaNce103p lacking the first 29 amino acids (domain or fragment, Carbonic anhydrase Nce103p of Candida albicans (strain HE109) lacking the first 29 amino acids; C-terminus at residue 281; no tag (stop codon kept); source: E. coli BL23(DE3), purified (HiTrap Ni column, MonoQ)) DNNNNLNGMNNTIKTHPVRVSSGNHNNFPFTLSSESTLQDFLNNNKFFVDSIKHNHGNQIFDLNGQGQSPHTLWIGCSDSRAGDQCLATLPGEIFVHRNIANIVNANDISSQGVIQFAIDVLKVKKIIVCGHTDCGGIWASLSKKKIGGVLDLWLNPVRHIRAANLKLLEEYNQDPKLKAKKLAELNVISSVTALKRHPSASVALKKNEIEVWGMLYDVATGYLSQVEIPQDEFEDLFHVHDEHDEEEYNPH", "values": [{"measurement": "stoichiometry N", "result": "4 and 2"}]}]}
